The target in experiment [1] is VH1VL1-CD8ATD-CD137CSD-CD3zSSD fusion.
Experiment [2] has as its target VL1VH3-CD8ATD-CD137CSD-CD3zSSD fusion.
For experiment [3], the target named is VH2VL1-CD8ATD-CD137CSD-CD3zSSD fusion.
For experiment [4], the target named is VH3VL1-CD8ATD-CD137CSD-CD3zSSD fusion.
Experiment [5] addresses VH1VL1-CD8ATD-CD137CSD-CD3zSSD fusion. This is another data set of the same source.
The target of experiment [6] is VL1VH3-CD8ATD-CD137CSD-CD3zSSD fusion. The source holds these as a separate data set.
The target in experiment [7] is VH2VL1-CD8ATD-CD137CSD-CD3zSSD fusion. The source holds these as a separate data set.
The target in experiment [8] is VH3VL1-CD8ATD-CD137CSD-CD3zSSD fusion. The source holds these as a separate data set.
Experiment [9] concerns the target VL1VH3-CD8ATD-CD137CSD-CD3zSSD fusion. The source holds these as a separate data set.
The target in experiment [10] is VH2VL1-CD8ATD-CD137CSD-CD3zSSD fusion. This is another data set of the same source.

VL1VH3-CD8ATD-CD137CSD-CD3zSSD fusion, sequence (chain, as listed by the source): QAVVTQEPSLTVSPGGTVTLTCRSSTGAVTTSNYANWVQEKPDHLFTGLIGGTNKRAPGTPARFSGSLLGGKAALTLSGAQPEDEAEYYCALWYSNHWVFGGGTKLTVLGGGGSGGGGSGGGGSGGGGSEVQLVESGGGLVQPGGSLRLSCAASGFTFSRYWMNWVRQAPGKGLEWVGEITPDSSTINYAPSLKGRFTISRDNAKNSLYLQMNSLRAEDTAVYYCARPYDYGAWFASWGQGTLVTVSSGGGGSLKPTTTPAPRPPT
VH2VL1-CD8ATD-CD137CSD-CD3zSSD fusion, sequence (chain, as listed by the source): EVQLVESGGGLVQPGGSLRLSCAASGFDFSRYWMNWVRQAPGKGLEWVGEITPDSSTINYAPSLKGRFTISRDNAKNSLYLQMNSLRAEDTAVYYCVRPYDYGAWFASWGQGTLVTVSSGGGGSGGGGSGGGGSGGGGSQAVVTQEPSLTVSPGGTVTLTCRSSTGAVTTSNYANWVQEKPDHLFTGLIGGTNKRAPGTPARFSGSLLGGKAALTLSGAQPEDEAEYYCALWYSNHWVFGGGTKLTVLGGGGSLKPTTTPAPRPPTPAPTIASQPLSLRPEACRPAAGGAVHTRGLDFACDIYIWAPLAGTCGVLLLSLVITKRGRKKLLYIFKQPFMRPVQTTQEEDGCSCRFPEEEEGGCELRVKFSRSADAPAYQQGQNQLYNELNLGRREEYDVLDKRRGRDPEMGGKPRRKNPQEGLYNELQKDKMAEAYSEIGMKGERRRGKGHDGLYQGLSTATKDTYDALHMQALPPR
VH3VL1-CD8ATD-CD137CSD-CD3zSSD fusion, sequence (chain, as listed by the source): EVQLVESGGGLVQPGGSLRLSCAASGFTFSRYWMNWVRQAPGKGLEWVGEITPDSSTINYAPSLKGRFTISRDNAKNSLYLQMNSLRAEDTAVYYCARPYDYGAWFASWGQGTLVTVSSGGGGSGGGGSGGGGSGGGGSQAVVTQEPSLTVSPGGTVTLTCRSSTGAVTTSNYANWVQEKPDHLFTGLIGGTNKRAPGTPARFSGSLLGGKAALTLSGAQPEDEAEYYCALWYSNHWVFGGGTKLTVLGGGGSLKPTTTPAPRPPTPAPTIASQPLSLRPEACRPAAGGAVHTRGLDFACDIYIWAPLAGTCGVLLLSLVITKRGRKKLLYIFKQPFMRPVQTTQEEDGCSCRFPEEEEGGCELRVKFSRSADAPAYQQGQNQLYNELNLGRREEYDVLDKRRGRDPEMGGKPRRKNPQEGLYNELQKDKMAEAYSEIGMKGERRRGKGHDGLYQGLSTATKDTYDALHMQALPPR
VH1VL1-CD8ATD-CD137CSD-CD3zSSD fusion, sequence (chain, as listed by the source): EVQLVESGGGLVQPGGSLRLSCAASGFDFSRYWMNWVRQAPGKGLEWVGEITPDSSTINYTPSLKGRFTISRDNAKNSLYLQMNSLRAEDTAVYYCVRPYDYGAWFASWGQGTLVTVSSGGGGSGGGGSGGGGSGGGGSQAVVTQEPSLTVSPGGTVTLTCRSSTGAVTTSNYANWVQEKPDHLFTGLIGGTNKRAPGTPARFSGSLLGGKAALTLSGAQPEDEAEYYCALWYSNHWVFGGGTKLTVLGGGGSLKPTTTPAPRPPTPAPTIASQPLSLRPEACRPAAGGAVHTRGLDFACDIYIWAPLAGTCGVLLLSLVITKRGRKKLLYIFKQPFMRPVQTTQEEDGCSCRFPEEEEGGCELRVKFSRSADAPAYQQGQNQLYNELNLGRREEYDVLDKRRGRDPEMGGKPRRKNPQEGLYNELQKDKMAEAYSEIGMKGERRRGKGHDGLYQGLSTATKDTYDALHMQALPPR

Consider “anti-CD20 (GA101) P329G LALA IgG1 (antibody)”, for which the EC50 of Jurkat NFAT luciferase reporter activation (RLU/s), WSUDLCL2 target cells 5:1; drawn table, row 'VH1 x VL1' in experiment [1] is 8.1 pM. The substance also yielded an EC50 of Jurkat NFAT luciferase reporter activation (RLU/s), WSUDLCL2 target cells 5:1; drawn table, row 'VL1 x VH 3' in [2] of 6.58 pM. This substance also came in with an EC50 of Jurkat NFAT luciferase reporter activation (RLU/s), WSUDLCL2 target cells 5:1; drawn table, row 'VH2 x VL1' in experiment [3] of 6.93 pM. Besides, the EC50 of Jurkat NFAT luciferase reporter activation (RLU/s), WSUDLCL2 target cells 5:1; drawn table, row 'VH3 x VL1' in experiment [4] stood at 7.57 pM.
“anti-CD20 (GA101) D246A P329G IgG1 (antibody)” yielded an EC50 of Jurkat NFAT luciferase reporter activation (RLU/s), WSUDLCL2 target cells 5:1; drawn table, row 'VH1 x VL1'; x axis 'GA101 D246A P329G [nM]' in [5] of 0.00814 nM. The substance also had an EC50 of Jurkat NFAT luciferase reporter activation (RLU/s), WSUDLCL2 target cells 5:1; drawn table, row 'VL1 x VH 3'; x axis 'GA101 D246A P329G [nM]' in experiment [6] of 0.00619 nM. In [7], this substance showed an EC50 of Jurkat NFAT luciferase reporter activation (RLU/s), WSUDLCL2 target cells 5:1; drawn table, row 'VH2 x VL1'; x axis 'GA101 D246A P329G [nM]' of 0.0104 nM. In [8], this substance had an EC50 of Jurkat NFAT luciferase reporter activation (RLU/s), WSUDLCL2 target cells 5:1; drawn table, row 'VH3 x VL1'; x axis 'GA101 D246A P329G [nM]' of 0.00582 nM.
Take DP47 P329G LALA (antibody): the EC50 printed in the drawn table (row 'VL1 x VH 3') for the Jurkat NFAT reporter assay with WSUDLCL2 cells and untargeted DP47 P329G LALA; the curve stays near background (about 60 to 110 RLU/s) in experiment [9] is 7420 pM. The substance further gave an EC50 printed in the drawn table (row 'VH2 x VL1') for the Jurkat NFAT reporter assay with WSUDLCL2 cells and untargeted DP47 P329G LALA; the curve stays at background (about 60 to 90 RLU/s) in experiment [10] of 293 pM.
